Molecular target: extracellular matrix (BD Matrigel)
Assay: ECL on Matrigel-coated plate, relative to MRAH-G1d/MRAL-k0

- ECM binding ratio (standard = 1): 0.3
B1: TR01H113-E2702sKsc/GCH065-E2704sEpsc/L0011-k0 (bispecific antibody, human IgG4 S228P, kappa, N297A)
heavy 1: QVQLVESGGGVVQPGGSLRLSCAASGFTFSNAWMHWVRQAPGKGLEWVAQIKDKSQNYATYVAESVKGRFTISRADSKNSIYLQMNSLKTEDTAVYYCRYVHYAAGYGVDIWGQGTTVTVSSASTKGPSVFPLAPCSRSTSESTAALGCLVKDYFPEPVTVSWNSGALTSGVHTFPAVLQSSGLYSLSSVVTVPSSSLGTKTYTCNVDHKPSNTKVDKRVESKYGPPCPPCPAPEFRGGPKVFLFPPKPKDTLMISRTPEVTCVVVDVSQEDPEVQFNWYVDGVEVHNAKTKPREEQFASTYRVVSVLTVLHQDWLNGKEYKCKVSNKGLPSSIEKTISKAKGQPREPQVYTLPPSQKEMTKNQVSLTCLVKGFYPSDIAVEWESNGQPENNYKTTPPVLDSDGSFFLYSKLTVDKSRWQEGNVFSCSVMHEALHNHYTQKSLSLSP
heavy 2: QVQLVQSGAEVKKPGASVTVSCKASGYTFTDYEMHWIRQPPGEGLEWIGAIDGPTPDTAYSEKFKGRVTLTADKSTSTAYMELSSLTSEDTAVYYCTRFYSYTYWGQGTLVTVSSASTKGPSVFPLAPCSRSTSESTAALGCLVKDYFPEPVTVSWNSGALTSGVHTFPAVLQSSGLYSLSSVVTVPSSSLGTQTYTCNVDHKPSNTKVDKRVESKYGPPCPPCPAPEFRGGPKVFLFPPKPKDTLMISRTPEVTCVVVDVSQEDPEVQFNWYVDGVEVHNAKTKPREEQFASTYRVVSVLTVLHQDWLNGKEYKCKVSNKGLPSSIEKTISKAKGQPREPQVYTLPPSQEEMTKNQVSLTCLVKGFYPSDIAVEWESNGQPENNYKTTPPVLDSDGSFFLYSKLTVDKSRWQEGNVFSCSVMHEALHNHYTQESLSLSP
light: DIVMTQSPLSLPVTPGEPASISCRSSQPLVHSNRNTYLHWYQQKPGQAPRLLIYKVSNRFSGVPDRFSGSGSGTDFTLKISRVEAEDVGVYYCGQGTQVPYTFGQGTKLEIKRTVAAPSVFIFPPSDEQLKSGTASVVCLLNNFYPREAKVQWKVDNALQSGNSQESVTEQDSKDSTYSLSSTLTLSKADYEKHKVYACEVTHQGLSSPVTKSFNRGEC

Source: patent US20210388110A1
